Data on 2 molecules can be found in patent US20150191542A1 (INNATE PHARMA S A, published 2015).

Experiment [1] concerns the target T1, MICA*001 expressed on transfected cells (human).
T1 construct: the cells carry the complete allele; also called C1R-MICA*001; C1R-MICA*01
T1 chain: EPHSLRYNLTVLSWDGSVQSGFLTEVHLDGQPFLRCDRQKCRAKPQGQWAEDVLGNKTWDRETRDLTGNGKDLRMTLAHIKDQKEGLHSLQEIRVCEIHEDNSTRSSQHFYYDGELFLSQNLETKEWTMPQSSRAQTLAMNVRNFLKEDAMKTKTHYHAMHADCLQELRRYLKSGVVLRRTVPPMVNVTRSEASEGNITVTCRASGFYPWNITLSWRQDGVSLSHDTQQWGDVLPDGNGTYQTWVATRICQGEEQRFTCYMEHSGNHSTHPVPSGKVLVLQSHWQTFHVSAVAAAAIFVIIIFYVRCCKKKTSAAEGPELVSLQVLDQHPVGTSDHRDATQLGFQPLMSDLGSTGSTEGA
Kind of experiment: flow cytometry on C1R-MICA*001 cells, 3-parameter logistic fit. The procedure:
The binding of antibodies obtained from the first and second immunization series (including 9C10, 20C6 and 16A8) were tested for binding to MICA-expressing CR1 transfectant cells C1R-MICA*001, C1R-MICA*004, C1R-MICA*007 and C1R-MICA*008 (Pr. A. Steinle, Eberhard-Karls University Tuebingen, Germany) described in Salih et al. (2003) Blood 102(4): […]. Binding was analyzed by flow cytometry.
Cells were harvested and stained in PBS 1×/BSA 0,2%/EDTA 2 mM buffer during 30 minutes at 4° C. using a dose-range of the anti-MICA mAbs. After two washes in staining buffer, cells were stained for 30 min at 4° C. with goat anti-mouse (H+L)-PE polyclonal antibodies (1/200). After two washes, stainings were acquired on a BD FACS Canto II and analyzed using the FlowJo software.
Antibodies 9C10, 20C6 and 16A8 bound to each of the C1R-MICA*001, C1R-MICA*004, C1R-MICA*007 and C1R-MICA*008 cells (see FIGS. 3A, 3B and 3C for antibodies 9C10, 20C6 and 16A8 respectively). […] EC50 values are shown in Table C in μg/ml (calculated using a 3-parameter logistic fit).

Experiment [2] has as its target T2, ULBP1-Fc protein (UniProt Q9BZM6 26-216, limits assumed).
T2 construct: also called ULPB1; not shown: Fc part
T2 sequence (looked up): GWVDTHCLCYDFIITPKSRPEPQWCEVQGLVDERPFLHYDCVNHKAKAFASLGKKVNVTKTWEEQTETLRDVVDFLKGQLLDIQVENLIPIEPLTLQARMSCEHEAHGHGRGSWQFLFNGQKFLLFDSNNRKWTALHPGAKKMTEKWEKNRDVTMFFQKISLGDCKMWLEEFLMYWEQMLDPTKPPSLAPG
Kind of experiment: SPR Biacore T100, biotinylated antibody captured on CAP chip, Fc protein injected. The procedure:
(§1) The binding of 9C10, 20C6 and 16A8 to either recombinant human MICA extracellular domain recombinant protein monomers or dimers (MICA*019 allele-Fc protein or MICA*001-His protein) as well as other NKG2D ligands MICB and ULBP1-2 was analyzed by Surface Plasmon Resonance (SPR) using a Biacore T100 apparatus to obtain monovalent and bivalent affinity, respectively. Biotinylated anti-MICA antibodies were injected at a constant rate of 10 μl/min over the Sensor Chip CAP flow-cells comprising Biotin CAPture Reagent. MICA-Fc or MICA-His protein, MICB-Fc, ULBP1-Fc or ULBP2-Fc protein is then injected successively (range of concentrations between 0.01-100 nM), with regeneration between injections, and in increasing order over two flowcells simultaneously. Curves are fitted using Biacore T100 Evaluation software.
(§2) (a) General Biacore T100 methods. SPR measurements were performed on a Biacore T100 apparatus (Biacore GE Healthcare) at 25° C. In all Biacore experiments HBS-EP+ buffer (Biacore GE Healthcare) or 10 mM sodium acetate pH 7.4, 150 mM NaCl, 0.05% P20 served as running buffer and sensorgrams were analyzed with Biaevaluation 4.1 and Biacore T100 Evaluation software. Recombinant human and mouse TLR3 were purchased from R&D Systems.

Experiment [3] concerns the target T3, ULBP2-Fc protein (UniProt Q9BZM5 26-217, limits assumed).
T3 construct: also called ULPB2; not shown: Fc part
T3 sequence (looked up): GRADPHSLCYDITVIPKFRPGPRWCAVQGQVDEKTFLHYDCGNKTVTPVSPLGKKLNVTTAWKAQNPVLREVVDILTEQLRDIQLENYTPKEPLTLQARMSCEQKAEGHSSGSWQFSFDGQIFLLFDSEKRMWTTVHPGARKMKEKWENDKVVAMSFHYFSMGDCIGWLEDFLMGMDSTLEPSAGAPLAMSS
The experiment is described as above. The procedure:
as §1, §2

The target in experiment [4] is T4, recombinant human MICA extracellular domain recombinant-Fc protein (MICA*019 allele) (human, UniProt Q29983 24-297).
T4 construct: Bought from R&D Systems; also called MICA*019-Fc; MICA-Fc; not shown: Fc part of the bought fusion protein (R&D Systems)
T4 chain: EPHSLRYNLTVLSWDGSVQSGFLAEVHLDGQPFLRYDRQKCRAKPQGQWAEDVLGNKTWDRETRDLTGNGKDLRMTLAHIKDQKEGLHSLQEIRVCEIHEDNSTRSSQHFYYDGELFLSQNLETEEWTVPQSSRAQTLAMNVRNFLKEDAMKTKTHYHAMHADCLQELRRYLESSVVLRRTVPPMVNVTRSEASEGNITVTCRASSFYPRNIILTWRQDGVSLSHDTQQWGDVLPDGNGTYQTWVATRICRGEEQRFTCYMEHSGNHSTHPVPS
Kind of experiment: SPR Biacore T100, biotinylated antibody captured on CAP chip, MICA protein injected. The procedure:
as §1, §2

B1: antibody 9C10 (antibody, V domains shown)
VH: QVQLQQPGAELVRPGTSVNLSCKASGYSFTRYWMNWVKQRPGQGLEWIGMIHPSDSETRLNQKFKDKATLTVDKSSSTAYMQLSSPTSEDSAVYYCGYGNFFYVMDYWGQGTSVTVSS
VL: DILLTQSPAILSVSPGERVSFSCRASQSIGTSIHWYQQRTNGSPRLLIKFASESISGIPSRFSGSGSGTDFTLNINSVESEDIADYYCQQSNFWPFTFGSGTKLEVK
modifications: Biotinylated when captured in the SPR assays (9C10-Biot); the sites are not given.
notes: Murine hybridoma antibody of IgG2b isotype as tested; also called 9C10-Biot
B1 showed an EC50 in experiment [1] of 3.15 µg/mL. The binding result in experiment [2] and in experiment [3] was “no binding (tested: 0.01-100 nM)” throughout.

B2: antibody 16A8 (antibody, V domains shown)
VH: EVQLVESGGGLVKPGGSLKLSCAASGFTFSRYAMSWVRQTPEKRLEWVATIFSGGSYTYYPDSVKGRFTISRDNANNTLYLQMSSLKAEDTAMYFCARPNWERTFDYWGQGTTLTVSS
VL: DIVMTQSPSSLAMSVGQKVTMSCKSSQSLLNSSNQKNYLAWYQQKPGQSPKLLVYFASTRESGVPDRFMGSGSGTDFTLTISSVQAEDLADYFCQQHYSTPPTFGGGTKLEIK
notes: Murine hybridoma antibody of IgG2a isotype as tested; also called 16A8-Biot
On to B2, for which the binding result in experiment [4] was “binds”. The molecule further returned an EC50 in experiment [1] of 1.18 µg/mL.
